Results: article PMC4260879

What was measured:
UG37 gp140 (HIV-1) [1] = assay: ELISA; gp140 coated at 2 ug/ml (2 hr, 37 C); CD4-IgG2 titrated, 2 hr at RT; detected with anti-human-IgG-HRP; one-site binding fit, EC50 at 50% of maximum binding
UG37 gp140 (HIV-1) [2] = assay: SEC; Superdex200 26/60; trimer peak after Talon, re-run after GNA-lectin capture

| Substance | EC50 (UG37 gp140 (HIV-1) [1]) | stoichiometry N (UG37 gp140 (HIV-1) [2]) |
| --- | --- | --- |
| CD4-IgG2 (from UniProt P01730 26-458) (Fc fusion) | 0.18 nM | – |
| UG37 gp140 (domain or fragment) | – | 3 |
